In publication PMC3951439:

Molecular target: EZH2 subunit of purified human PRC2 (human) (UniProt Q15910)
Sequence (Q15910 whole entry): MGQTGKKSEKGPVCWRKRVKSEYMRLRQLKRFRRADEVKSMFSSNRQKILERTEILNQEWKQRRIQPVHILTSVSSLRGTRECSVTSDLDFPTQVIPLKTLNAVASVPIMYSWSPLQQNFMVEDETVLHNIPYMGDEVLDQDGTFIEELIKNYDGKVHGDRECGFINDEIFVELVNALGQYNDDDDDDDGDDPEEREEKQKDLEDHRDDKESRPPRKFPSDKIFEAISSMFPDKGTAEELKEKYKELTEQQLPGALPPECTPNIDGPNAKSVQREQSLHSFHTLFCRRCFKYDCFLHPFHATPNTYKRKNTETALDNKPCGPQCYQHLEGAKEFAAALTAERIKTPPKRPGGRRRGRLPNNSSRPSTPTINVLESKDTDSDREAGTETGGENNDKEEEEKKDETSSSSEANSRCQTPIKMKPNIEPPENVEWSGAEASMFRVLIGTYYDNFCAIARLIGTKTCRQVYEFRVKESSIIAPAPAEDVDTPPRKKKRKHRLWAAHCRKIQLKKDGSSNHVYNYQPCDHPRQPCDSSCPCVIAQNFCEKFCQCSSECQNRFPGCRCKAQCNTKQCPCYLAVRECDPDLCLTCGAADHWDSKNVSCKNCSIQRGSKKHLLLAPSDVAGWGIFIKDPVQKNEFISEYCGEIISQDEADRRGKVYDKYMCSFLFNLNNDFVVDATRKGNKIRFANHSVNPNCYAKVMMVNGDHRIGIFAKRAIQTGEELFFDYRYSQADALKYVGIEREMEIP

“H3 peptide (18 to 37) containing K27Ile (from UniProt P84243 19-38)” gave an IC50 of inhibition of PRC2 methyltransferase activity in vitro, peptide titrated of 8.9 µM.
